Reference: US20180086804A1 (COMMISSARIAT A L ENERGIE ATOMIQUE ET AUX ENERGIES …, published 2018)
No end group written: not given here.

Target: T1, HLA-DR7 (HLA-DRB1*07:01) (human)
T1 construct: mature; purified from homozygous EBV-transformed lymphoblastoid cells with antibody L243
Assay: competition ELISA vs biotin-YKL

Row | Binder | relative affinity
1 | VDVEQHTLAKYLMEL-NH2 [CCNB1 315-329] | 6
2 | LPVMQHLAKNVVMVN-NH2 [CCNB1 377-391] | 13
3 | MALRVTRNSKINAEN-NH2 [CCNB1 1-15] | 2
4 | AKINMAGAKRVPTAP-NH2 [CCNB1 17-31] | 3
5 | LHFLRRASKIGEVDV-NH2 [CCNB1 303-317] | 849

Target: T1, HLA-DR7 (HLA-DRB1*07:01)
Assay: competition ELISA vs biotin-YKL
Remark: another data set of the same source

Row | Binder | relative affinity
6 | SEYVKDIYAYLRQLE-NH2 [CCNB1 168-182] | 346
7 | RAILIDWLVQVQMKF-NH2 [CCNB1 202-216] | 9
8 | FRLLQETMYMTVSII-NH2 [CCNB1 216-230] | 0.5
9 | MTVSIIDRFMQNNCV-NH2 [CCNB1 225-239] | 5

Target: T2, HLA-DR3 (HLA-DRB1*03:01) (human)
T2 construct: mature; purified from homozygous EBV-transformed lymphoblastoid cells with antibody L243
Assay: competition ELISA vs biotin-MT 2-16

Row | Binder | relative affinity
10 | AKINMAGAKRVPTAP-NH2 [CCNB1 17-31] | 833
11 | LHFLRRASKIGEVDV-NH2 [CCNB1 303-317] | 3

Target: T3, HLA-DRB4 (HLA-DRB4*01:01) (human)
T3 construct: mature; purified from homozygous EBV-transformed lymphoblastoid cells with antibody L243
Assay: competition ELISA vs biotin-E2/E168

Row | Binder | relative affinity
12 | RAILIDWLVQVQMKF-NH2 [CCNB1 202-216] | 20
13 | FRLLQETMYMTVSII-NH2 [CCNB1 216-230] | 22
14 | MTVSIIDRFMQNNCV-NH2 [CCNB1 225-239] | 6

Target: T2, HLA-DR3 (HLA-DRB1*03:01)
Assay: competition ELISA vs biotin-MT 2-16
Remark: another data set of the same source

Row | Binder | relative affinity
15 | SEYVKDIYAYLRQLE-NH2 [CCNB1 168-182] | 97
16 | RAILIDWLVQVQMKF-NH2 [CCNB1 202-216] | 1
17 | FRLLQETMYMTVSII-NH2 [CCNB1 216-230] | 1
18 | MTVSIIDRFMQNNCV-NH2 [CCNB1 225-239] | 1

Target: T4, HLA-DR13 (HLA-DRB1*13:01) (human)
T4 construct: mature; purified from homozygous EBV-transformed lymphoblastoid cells with antibody L243
Assay: competition ELISA vs biotin-B1 21-36

Row | Binder | relative affinity
19 | VDVEQHTLAKYLMEL-NH2 [CCNB1 315-329] | 211
20 | LPVMQHLAKNVVMVN-NH2 [CCNB1 377-391] | 2
21 | MALRVTRNSKINAEN-NH2 [CCNB1 1-15] | 58
22 | AKINMAGAKRVPTAP-NH2 [CCNB1 17-31] | 21
23 | LHFLRRASKIGEVDV-NH2 [CCNB1 303-317] | 1

Target: T4, HLA-DR13 (HLA-DRB1*13:01)
Assay: competition ELISA vs biotin-B1 21-36
Remark: another data set of the same source

Row | Binder | relative affinity
24 | SEYVKDIYAYLRQLE-NH2 [CCNB1 168-182] | 12

Target: T5, HLA-DR15 (HLA-DRB1*15:01) (human)
T5 construct: mature; purified from homozygous EBV-transformed lymphoblastoid cells with antibody L243
Assay: competition ELISA vs biotin-A3 152-166

Row | Binder | relative affinity
25 | VDVEQHTLAKYLMEL-NH2 [CCNB1 315-329] | 7
26 | MALRVTRNSKINAEN-NH2 [CCNB1 1-15] | 5
27 | AKINMAGAKRVPTAP-NH2 [CCNB1 17-31] | 120
28 | LHFLRRASKIGEVDV-NH2 [CCNB1 303-317] | 17

Target: T6, HLA-DR1 (HLA-DRB1*01:01) (human)
T6 construct: mature; class II HLA molecule purified from homozygous EBV-transformed lymphoblastoid cells with antibody L243
Assay: competition ELISA vs biotin-HA 306-318;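 note: HLA and competitor incubated 24 to 72 h, maximal signal taken from wells lacking competitor, background from wells lacking HLA molecule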

Row | Binder | relative affinity
29 | VDVEQHTLAKYLMEL-NH2 [CCNB1 315-329] | 2450
30 | LPVMQHLAKNVVMVN-NH2 [CCNB1 377-391] | 894
31 | MALRVTRNSKINAEN-NH2 [CCNB1 1-15] | 100
32 | AKINMAGAKRVPTAP-NH2 [CCNB1 17-31] | 5
33 | LHFLRRASKIGEVDV-NH2 [CCNB1 303-317] | 495

Target: T7, HLA-DRB5 (HLA-DRB5*01:01) (human)
T7 construct: mature; purified from homozygous EBV-transformed lymphoblastoid cells with antibody L243
Assay: competition ELISA vs biotin-HA 306-318;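 note: HLA and competitor incubated 24 to 72 h, maximal signal taken from wells lacking competitor, background from wells lacking HLA molecule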

Row | Binder | relative affinity
34 | VDVEQHTLAKYLMEL-NH2 [CCNB1 315-329] | 224
35 | LPVMQHLAKNVVMVN-NH2 [CCNB1 377-391] | 4080
36 | MALRVTRNSKINAEN-NH2 [CCNB1 1-15] | 374
37 | AKINMAGAKRVPTAP-NH2 [CCNB1 17-31] | 11
38 | LHFLRRASKIGEVDV-NH2 [CCNB1 303-317] | 1330

Target: T8, HLA-DR4 (HLA-DRB1*04:01) (human)
T8 construct: mature; purified from homozygous EBV-transformed lymphoblastoid cells with antibody L243
Assay: competition ELISA vs biotin-HA 306-318;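 note: HLA and competitor incubated 24 to 72 h, maximal signal taken from wells lacking competitor, background from wells lacking HLA molecule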

Row | Binder | relative affinity
39 | LPVMQHLAKNVVMVN-NH2 [CCNB1 377-391] | 373
40 | MALRVTRNSKINAEN-NH2 [CCNB1 1-15] | 46
41 | LHFLRRASKIGEVDV-NH2 [CCNB1 303-317] | 1390

Target: T9, HLA-DR11 (HLA-DRB1*11:01) (human)
T9 construct: mature; purified from homozygous EBV-transformed lymphoblastoid cells with antibody L243
Assay: competition ELISA vs biotin-HA 306-318;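 note: HLA and competitor incubated 24 to 72 h, maximal signal taken from wells lacking competitor, background from wells lacking HLA molecule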

Row | Binder | relative affinity
42 | VDVEQHTLAKYLMEL-NH2 [CCNB1 315-329] | 632
43 | LPVMQHLAKNVVMVN-NH2 [CCNB1 377-391] | 3
44 | MALRVTRNSKINAEN-NH2 [CCNB1 1-15] | 22
45 | AKINMAGAKRVPTAP-NH2 [CCNB1 17-31] | 2
46 | LHFLRRASKIGEVDV-NH2 [CCNB1 303-317] | 1

Target: T5, HLA-DR15 (HLA-DRB1*15:01)
Assay: competition ELISA vs biotin-A3 152-166
Remark: another data set of the same source

Row | Binder | relative affinity
47 | SEYVKDIYAYLRQLE-NH2 [CCNB1 168-182] | 12
48 | RAILIDWLVQVQMKF-NH2 [CCNB1 202-216] | 4
49 | FRLLQETMYMTVSII-NH2 [CCNB1 216-230] | 3
50 | MTVSIIDRFMQNNCV-NH2 [CCNB1 225-239] | 2

Target: T6, HLA-DR1 (HLA-DRB1*01:01)
Assay: competition ELISA vs biotin-HA 306-318
Remark: another data set of the same source

Row | Binder | relative affinity
51 | SEYVKDIYAYLRQLE-NH2 [CCNB1 168-182] | 22
52 | RAILIDWLVQVQMKF-NH2 [CCNB1 202-216] | 1220
53 | FRLLQETMYMTVSII-NH2 [CCNB1 216-230] | 7
54 | MTVSIIDRFMQNNCV-NH2 [CCNB1 225-239] | 24

Target: T7, HLA-DRB5 (HLA-DRB5*01:01)
Assay: competition ELISA vs biotin-HA 306-318
Remark: another data set of the same source

Row | Binder | relative affinity
55 | SEYVKDIYAYLRQLE-NH2 [CCNB1 168-182] | 3
56 | RAILIDWLVQVQMKF-NH2 [CCNB1 202-216] | 55
57 | FRLLQETMYMTVSII-NH2 [CCNB1 216-230] | 50
58 | MTVSIIDRFMQNNCV-NH2 [CCNB1 225-239] | 79

Target: T8, HLA-DR4 (HLA-DRB1*04:01)
Assay: competition ELISA vs biotin-HA 306-318
Remark: another data set of the same source

Row | Binder | relative affinity
59 | RAILIDWLVQVQMKF-NH2 [CCNB1 202-216] | 59
60 | FRLLQETMYMTVSII-NH2 [CCNB1 216-230] | 2
61 | MTVSIIDRFMQNNCV-NH2 [CCNB1 225-239] | 100

Target: T9, HLA-DR11 (HLA-DRB1*11:01)
Assay: competition ELISA vs biotin-HA 306-318
Remark: another data set of the same source

Row | Binder | relative affinity
62 | SEYVKDIYAYLRQLE-NH2 [CCNB1 168-182] | 3
63 | RAILIDWLVQVQMKF-NH2 [CCNB1 202-216] | 400
64 | FRLLQETMYMTVSII-NH2 [CCNB1 216-230] | 14
65 | MTVSIIDRFMQNNCV-NH2 [CCNB1 225-239] | 31

Target: T10, HLA-DRB3 (HLA-DRB3*01:01) (human)
T10 construct: mature; purified from homozygous EBV-transformed lymphoblastoid cells with antibody L243
Assay: competition ELISA vs biotin-LOL 191-210

Row | Binder | relative affinity
66 | SEYVKDIYAYLRQLE-NH2 [CCNB1 168-182] | 30
67 | RAILIDWLVQVQMKF-NH2 [CCNB1 202-216] | 2
68 | FRLLQETMYMTVSII-NH2 [CCNB1 216-230] | 11
69 | MTVSIIDRFMQNNCV-NH2 [CCNB1 225-239] | 9

Target: T11, HLA-DP401 (HLA-DPB1*04:01) (human, UniProt P20036 29-222)
T11 construct: mature; purified from homozygous EBV-transformed lymphoblastoid cells with antibody B7/21
Assay: competition ELISA vs biotin-Oxy 271-287;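 note: plates incubated 24–72 h, maximum binding defined by wells lacking competitor, background by wells lacking HLA molecule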

Row | Binder | relative affinity
70 | RAILIDWLVQVQMKF-NH2 [CCNB1 202-216] | 47
71 | FRLLQETMYMTVSII-NH2 [CCNB1 216-230] | 2
72 | MTVSIIDRFMQNNCV-NH2 [CCNB1 225-239] | 72

Target: T12, HLA-DP402 (HLA-DPB1*04:02) (human, UniProt P20036 29-222)
T12 construct: mature; purified from homozygous EBV-transformed lymphoblastoid cells with antibody B7/21
Assay: competition ELISA vs biotin-Oxy 271-287;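 note: plates incubated 24–72 h, maximum binding defined by wells lacking competitor, background by wells lacking HLA molecule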

Row | Binder | relative affinity
73 | SEYVKDIYAYLRQLE-NH2 [CCNB1 168-182] | 127
74 | RAILIDWLVQVQMKF-NH2 [CCNB1 202-216] | 14
75 | FRLLQETMYMTVSII-NH2 [CCNB1 216-230] | 1
76 | MTVSIIDRFMQNNCV-NH2 [CCNB1 225-239] | 35
